IntAct's records for PubMed 19262565

B1: Histone-lysine N-methyltransferase SETD7 (Homo sapiens), Q8WTS6 (parent)
chain: MDSDDEMVEEAVEGHLDDDGLPHGFCTVTYSSTDRFEGNFVHGEKNGRGKFFFFDGSTLEGYYVDDALQGQGVYTYEDGGVLQGTYVDGELNGPAQEYDTDGRLIFKGQYKDNIRHGVCWIYYPDGGSLVGEVNEDGEMTGEKIAYVYPDERTALYGKFIDGEMIEGKLATLMSTEEGRPHFELMPGNSVYHFDKSTSSCISTNALLPDPYESERVYVAESLISSAGEGLFSKVAVGPNTVMSFYNGVRITHQEVDSRDWALNGNTLSLDEETVIDVPEPYNHVSKYCASLGHKANHSFTPNCIYDMFVHPRFGPIKCIRTLRAVEADEELTVAYGYDHSPPGKSGPEAPEWYQVELKAFQATQQK

Variants of: B1
Conditions: with tf65_human RELA

effect of a mutation on the interaction | Variant
disrupting interaction | H297A
